Experimental data as given in publication PMC11429891.
pKd: −log10 of the molar value.

Biological target: human recombinant SNAP25 (Synaptosomal Associated Protein 25) (human) (UniProt P60880)
Assay: SPR

Sequence of human recombinant SNAP25 (Synaptosomal Associated Protein 25) (human) (P60880 whole entry): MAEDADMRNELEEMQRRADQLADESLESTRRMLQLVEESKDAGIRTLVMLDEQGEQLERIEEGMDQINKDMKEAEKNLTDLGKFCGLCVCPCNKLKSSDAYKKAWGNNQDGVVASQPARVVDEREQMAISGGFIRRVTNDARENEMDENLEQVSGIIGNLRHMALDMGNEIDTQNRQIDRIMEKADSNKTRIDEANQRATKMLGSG

Human type V Collagen (from UniProt P20908 38-1605; P05997 27-1229) (complex)
pKd: 5.14
